# Residue numbers refer to the chain shown, from its start. Numbers in names are those of the source.
# T1: EsCas13d, nuclease-dead (Eubacterium siraeum, UniProt B0MS50, R295A;H300A;R849A;H854A)
# T1 sequence: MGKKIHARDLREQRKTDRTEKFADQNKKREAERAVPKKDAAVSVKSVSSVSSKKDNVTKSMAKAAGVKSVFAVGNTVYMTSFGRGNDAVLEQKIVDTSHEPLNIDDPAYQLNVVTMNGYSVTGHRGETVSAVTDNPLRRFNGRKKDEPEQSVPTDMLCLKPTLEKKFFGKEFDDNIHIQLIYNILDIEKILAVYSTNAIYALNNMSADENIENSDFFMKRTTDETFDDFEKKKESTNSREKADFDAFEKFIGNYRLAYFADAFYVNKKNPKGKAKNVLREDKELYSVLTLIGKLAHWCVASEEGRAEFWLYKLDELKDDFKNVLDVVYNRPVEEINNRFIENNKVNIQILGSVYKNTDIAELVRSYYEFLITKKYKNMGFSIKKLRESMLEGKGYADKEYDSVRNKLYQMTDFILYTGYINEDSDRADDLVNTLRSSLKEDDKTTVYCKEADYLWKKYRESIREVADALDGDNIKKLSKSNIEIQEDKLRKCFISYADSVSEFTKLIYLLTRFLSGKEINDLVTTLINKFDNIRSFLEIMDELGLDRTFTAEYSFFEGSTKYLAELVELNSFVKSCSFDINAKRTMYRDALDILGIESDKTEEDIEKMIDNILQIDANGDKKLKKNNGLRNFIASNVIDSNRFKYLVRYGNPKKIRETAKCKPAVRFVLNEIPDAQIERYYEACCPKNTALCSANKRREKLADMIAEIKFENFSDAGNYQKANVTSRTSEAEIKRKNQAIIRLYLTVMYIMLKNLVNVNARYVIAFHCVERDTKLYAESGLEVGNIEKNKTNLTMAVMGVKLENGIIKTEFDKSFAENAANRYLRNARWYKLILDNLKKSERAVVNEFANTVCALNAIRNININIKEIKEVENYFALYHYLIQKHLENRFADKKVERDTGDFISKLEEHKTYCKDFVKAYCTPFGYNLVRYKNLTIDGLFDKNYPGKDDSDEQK
# B1: target 1 C6A,C22U (mixed)
# RNA 1: CACCCGUGCAAAAAUGCAGGGGUCUAAAACUGAGCGGAUAACCUCUCUAUGG
# RNA 2: GGGAAUGGAUCCACAUCUACGAAUUCGUAUCAUAGAGAGGUUAUCAGCUCACCGAGAUCGGAAGAGCACACGU
# B2: target 1 MT 5'PFS CUA 3'PFS CCG (mixed)
# RNA 1: B1 RNA 1
# RNA 2: B1 RNA 2 with G27C, U30C, A46C
# B3: target 1 MT 5'PFS GUC 3'PFS CUA (mixed)
# RNA 1: B1 RNA 1
# RNA 2: B1 RNA 2 with A29C, U30C, A46C, C53U, G54A
# B4: target 1 MT 5'PFS CAU 3'PFS CCG (mixed)
# RNA 1: B1 RNA 1
# RNA 2: B1 RNA 2 with G27C, U28A, A29U, U30C, A46C
# B5: target 1 MT 5'PFS GCA 3'PFS AAC (mixed)
# RNA 1: B1 RNA 1
# RNA 2: B1 RNA 2 with U28C, U30C, A46C, C52A, C53A, G54C
# B6: target 1 MT 5'PFS ACC 3'PFS UCC (mixed)
# RNA 1: B1 RNA 1
# RNA 2: B1 RNA 2 with G27A, U28C, A29C, U30C, A46C, C52U, G54C
# B7: target 1 MT 5'PFS GUA 3'PFS GUA (mixed)
# RNA 1: B1 RNA 1
# RNA 2: B1 RNA 2 with U30C, A46C, C52G, C53U, G54A
# B8: target 1 MT 5'PFS GUA 3'PFS GCC (mixed)
# RNA 1: B1 RNA 1
# RNA 2: B1 RNA 2 with U30C, A46C, C52G, G54C
# B9: target 1 MT 5'PFS GGC 3'PFS AGU (mixed)
# RNA 1: B1 RNA 1
# RNA 2: B1 RNA 2 with U28G, A29C, U30C, A46C, C52A, C53G, G54U
# B10: target 1 MT 5'PFS GCC 3'PFS AUG (mixed)
# RNA 1: B1 RNA 1
# RNA 2: B1 RNA 2 with U28C, A29C, U30C, A46C, C52A, C53U
# B11: target 1 MT 5'PFS CUA 3'PFS UCG (mixed)
# RNA 1: B1 RNA 1
# RNA 2: B1 RNA 2 with G27C, U30C, A46C, C52U
# B12: target 1 A9U,C21U (mixed)
# RNA 1: B1 RNA 1
# RNA 2: B1 RNA 2 with U30C, C31U, A43U, A46C
# B13: target 1 MT 5'PFS GGC 3'PFS UGC (mixed)
# RNA 1: B1 RNA 1
# RNA 2: B1 RNA 2 with U28G, A29C, U30C, A46C, C52U, C53G, G54C
# B14: target 1 A1C,G17C (mixed)
# RNA 1: B1 RNA 1
# RNA 2: B1 RNA 2 with U30C, G35C, A46C, A51C
# B15: target 1 MT 5'PFS GCA 3'PFS AAU (mixed)
# RNA 1: B1 RNA 1
# RNA 2: B1 RNA 2 with U28C, U30C, A46C, C52A, C53A, G54U
# B16: target 1 MT 5'PFS GCC 3'PFS AUA (mixed)
# RNA 1: B1 RNA 1
# RNA 2: B1 RNA 2 with U28C, A29C, U30C, A46C, C52A, C53U, G54A
# B17: target 1 MT 5'PFS CAG 3'PFS CCC (mixed)
# RNA 1: B1 RNA 1
# RNA 2: B1 RNA 2 with G27C, U28A, A29G, U30C, A46C, G54C
# B18: target 1 MT 5'PFS GUA 3'PFS GCA (mixed)
# RNA 1: B1 RNA 1
# RNA 2: B1 RNA 2 with U30C, A46C, C52G, G54A
# B19: target 1 MT 5'PFS GCA 3'PFS AAG (mixed)
# RNA 1: B1 RNA 1
# RNA 2: B1 RNA 2 with U28C, U30C, A46C, C52A, C53A
# B20: target 1 MT 5'PFS CUA 3'PFS UCC (mixed)
# RNA 1: B1 RNA 1
# RNA 2: B1 RNA 2 with G27C, U30C, A46C, C52U, G54C
# B21: target 1 MT 5'PFS GUA 3'PFS GCU (mixed)
# RNA 1: B1 RNA 1
# RNA 2: B1 RNA 2 with U30C, A46C, C52G, G54U
# B22: target 1 MT 5'PFS GUA 3'PFS GCG (mixed)
# RNA 1: B1 RNA 1
# RNA 2: B1 RNA 2 with U30C, A46C, C52G
# B23: target 1 MT 5'PFS GCC 3'PFS AUU (mixed)
# RNA 1: B1 RNA 1
# RNA 2: B1 RNA 2 with U28C, A29C, U30C, A46C, C52A, C53U, G54U
# B24: target 1 MT 5'PFS AAG 3'PFS CAU (mixed)
# RNA 1: B1 RNA 1
# RNA 2: B1 RNA 2 with G27A, U28A, A29G, U30C, A46C, C53A, G54U
# B25: target 1 MT 5'PFS CAG 3'PFS AAA (mixed)
# RNA 1: B1 RNA 1
# RNA 2: B1 RNA 2 with G27C, U28A, A29G, U30C, A46C, C52A, C53A, G54A
# B26: target 1 MT 5'PFS GCC 3'PFS AUC (mixed)
# RNA 1: B1 RNA 1
# RNA 2: B1 RNA 2 with U28C, A29C, U30C, A46C, C52A, C53U, G54C
# B27: target 1 MT 5'PFS GUC 3'PFS CUC (mixed)
# RNA 1: B1 RNA 1
# RNA 2: B1 RNA 2 with A29C, U30C, A46C, C53U, G54C
# B28: target 1 MT 5'PFS GAA 3'PFS CGU (mixed)
# RNA 1: B1 RNA 1
# RNA 2: B1 RNA 2 with U28A, U30C, A46C, C53G, G54U
# B29: target 1 insA 3' of 17,insA 3' of 6 (mixed)
# RNA 1: B1 RNA 1
# RNA 2: GGGAAUGGAUCCACAUCUACGAAUUCGUACCAUAGAAGAGGUUAUCCAGCUCACCGAGAUCGGAAGAGCACACGU
# B30: target 1 MT 5'PFS AAG 3'PFS CAC (mixed)
# RNA 1: B1 RNA 1
# RNA 2: B1 RNA 2 with G27A, U28A, A29G, U30C, A46C, C53A, G54C
# B31: target 1 MT 5'PFS AGC 3'PFS AUC (mixed)
# RNA 1: B1 RNA 1
# RNA 2: B1 RNA 2 with G27A, U28G, A29C, U30C, A46C, C52A, C53U, G54C
# B32: target 1 MT 5'PFS AAG 3'PFS CAG (mixed)
# RNA 1: B1 RNA 1
# RNA 2: B1 RNA 2 with G27A, U28A, A29G, U30C, A46C, C53A
# B33: target 1 A16U (mixed)
# RNA 1: B1 RNA 1
# RNA 2: B1 RNA 2 with U30C, A36U, A46C
# B34: target 1 MT 5'PFS ACA 3'PFS AGA (mixed)
# RNA 1: B1 RNA 1
# RNA 2: B1 RNA 2 with G27A, U28C, U30C, A46C, C52A, C53G, G54A
# B35: target 1 MT 5'PFS CCU 3'PFS UCU (mixed)
# RNA 1: B1 RNA 1
# RNA 2: B1 RNA 2 with G27C, U28C, A29U, U30C, A46C, C52U, G54U
# B36: target 1 MT 5'PFS GCA 3'PFS AAA (mixed)
# RNA 1: B1 RNA 1
# RNA 2: B1 RNA 2 with U28C, U30C, A46C, C52A, C53A, G54A
# B37: target 1 MT 5'PFS GUC 3'PFS CUG (mixed)
# RNA 1: B1 RNA 1
# RNA 2: B1 RNA 2 with A29C, U30C, A46C, C53U
# B38: target 1 MT 5'PFS GGC 3'PFS AGG (mixed)
# RNA 1: B1 RNA 1
# RNA 2: B1 RNA 2 with U28G, A29C, U30C, A46C, C52A, C53G
# B39: target 1 MT 5'PFS ACA 3'PFS CUA (mixed)
# RNA 1: B1 RNA 1
# RNA 2: B1 RNA 2 with G27A, U28C, U30C, A46C, C53U, G54A
# B40: target 1 MT 5'PFS AAG 3'PFS CAA (mixed)
# RNA 1: B1 RNA 1
# RNA 2: B1 RNA 2 with G27A, U28A, A29G, U30C, A46C, C53A, G54A
# Target: T1, EsCas13d, nuclease-dead
# Assay: crRNA (strand 1, pre-loaded); Mg2+; 40 mM Tris-HCl pH 7.5, 150 mM NaCl, 6 mM MgCl2, 1 mM DTT, 0.1% Tween-20, 0.2 mg/ml BSA; 25 C; 10 min per concentration, then washed
# Details: tags: His6-TwinStrep-SUMO cleaved; N-terminal SNAP kept (SNAP-Surface 488); label: 3' end held by stalled T7 RNA polymerase
row,Binder,Kd [nM]
1,B1,11.6 ± 0.7
2,B2,5.05 ± 1.7
3,B3,17.5 ± 4
4,B4,23 ± 8.5
5,B5,24 ± 6
6,B6,~21
7,B7,12.1 ± 1.5
8,B8,8.5 ± 1
9,B9,17.1 ± 2.45
10,B10,16.5 ± 6
11,B11,6 ± 0.95
12,B12,8.7 ± 0.8
13,B13,8.6 ± 1.35
14,B14,54 ± 15
15,B15,41.5 ± 10
16,B16,13.8 ± 2.4
17,B17,~49
18,B18,13.8 ± 1.4
19,B19,32.5 ± 8
20,B20,16.2 ± 4.8

row,Binder,Kd [nM]
1,B21,4.18 ± 0.37
2,B22,7.29 ± 0.49
3,B23,16.9 ± 4.1
4,B24,23 ± 10.5
5,B25,~51.5
6,B26,32 ± 11
7,B27,39.5 ± 12.5
8,B28,15.5 ± 4.5
9,B29,18.3 ± 1.4
10,B30,~50.5
11,B31,~30.5
12,B32,~37.5
13,B33,58 ± 9
14,B34,66.5 ± 24
15,B35,14.4 ± 3.1
16,B36,31.5 ± 7.5
17,B37,12.8 ± 2.9
18,B38,33.5 ± 5
19,B39,12.7 ± 3.5
20,B40,59 ± 29.5

# Source: paper PMC10786891, “Massively parallel profiling of RNA-targeting CRISPR-Cas13d”
